Measurements as given in US20230357838, “Double-Stranded DNA Deaminases and Uses Thereof” (New England Biolabs, Inc., published 2023).

T1: MGYPDa23 (unidentified)
T1 chain: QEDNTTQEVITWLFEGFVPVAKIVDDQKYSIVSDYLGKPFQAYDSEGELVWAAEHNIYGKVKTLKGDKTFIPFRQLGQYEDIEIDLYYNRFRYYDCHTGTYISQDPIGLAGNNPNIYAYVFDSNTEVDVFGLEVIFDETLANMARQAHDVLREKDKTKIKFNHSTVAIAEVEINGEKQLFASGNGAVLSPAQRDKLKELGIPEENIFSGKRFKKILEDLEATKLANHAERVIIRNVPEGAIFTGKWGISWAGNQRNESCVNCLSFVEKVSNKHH

T2: RaDa01 (Ruminococcus sp.)
T2 chain: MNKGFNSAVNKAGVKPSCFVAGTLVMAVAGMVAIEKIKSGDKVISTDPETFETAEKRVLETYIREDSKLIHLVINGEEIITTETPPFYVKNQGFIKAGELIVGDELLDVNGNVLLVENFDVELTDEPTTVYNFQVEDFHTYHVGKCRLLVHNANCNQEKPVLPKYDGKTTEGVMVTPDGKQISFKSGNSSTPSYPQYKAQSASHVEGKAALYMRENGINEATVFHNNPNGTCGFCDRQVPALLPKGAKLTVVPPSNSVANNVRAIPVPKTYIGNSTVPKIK

T3: d38_MGYPDa829 (unidentified)
T3 chain: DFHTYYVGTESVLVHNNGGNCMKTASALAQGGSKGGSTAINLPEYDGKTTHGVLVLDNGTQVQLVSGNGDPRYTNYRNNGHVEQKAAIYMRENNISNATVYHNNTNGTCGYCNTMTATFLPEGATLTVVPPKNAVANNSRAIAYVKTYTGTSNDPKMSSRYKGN

T4: LbsDa01 (Simiaoa sunii)
T4 chain: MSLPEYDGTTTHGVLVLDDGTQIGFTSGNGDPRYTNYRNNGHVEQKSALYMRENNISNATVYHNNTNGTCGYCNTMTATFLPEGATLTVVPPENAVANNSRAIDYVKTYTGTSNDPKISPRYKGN

T5: MGYPDa20 (unidentified)
T5 chain: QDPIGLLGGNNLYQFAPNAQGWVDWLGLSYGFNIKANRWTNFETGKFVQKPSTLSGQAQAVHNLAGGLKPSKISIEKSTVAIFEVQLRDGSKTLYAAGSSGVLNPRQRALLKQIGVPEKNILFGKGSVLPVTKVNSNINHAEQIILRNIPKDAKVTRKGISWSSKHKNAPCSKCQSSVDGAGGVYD

T6: CrDa01 (Clostridium roseum)
T6 chain: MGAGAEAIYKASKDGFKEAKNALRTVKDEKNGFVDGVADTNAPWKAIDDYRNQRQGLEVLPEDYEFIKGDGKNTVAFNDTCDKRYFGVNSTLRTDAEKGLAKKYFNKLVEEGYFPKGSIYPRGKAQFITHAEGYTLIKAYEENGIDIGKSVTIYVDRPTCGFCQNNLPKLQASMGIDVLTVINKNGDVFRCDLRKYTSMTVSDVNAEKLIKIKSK

T7: AvDa02 (Actinomyces viscosus)
T7 chain: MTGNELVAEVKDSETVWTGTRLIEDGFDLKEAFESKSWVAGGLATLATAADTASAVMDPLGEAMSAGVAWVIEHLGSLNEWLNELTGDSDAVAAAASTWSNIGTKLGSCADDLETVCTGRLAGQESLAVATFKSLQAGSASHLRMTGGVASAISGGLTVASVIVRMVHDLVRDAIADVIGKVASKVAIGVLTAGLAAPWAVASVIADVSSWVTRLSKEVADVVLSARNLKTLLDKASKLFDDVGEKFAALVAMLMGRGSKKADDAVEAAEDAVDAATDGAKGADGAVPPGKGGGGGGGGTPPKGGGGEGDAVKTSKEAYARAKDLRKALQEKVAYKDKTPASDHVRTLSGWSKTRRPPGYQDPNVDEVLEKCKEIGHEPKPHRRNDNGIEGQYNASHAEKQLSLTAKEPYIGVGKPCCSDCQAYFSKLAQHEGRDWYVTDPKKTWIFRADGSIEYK

B1: 40 bp 5caC oligo (dsDNA)
DNA 1: AAATTTAATTATAAAACGATCGACGACGAAATAATAAAAA
DNA 2: TTTTTATTATTTCGTCGTCGATCGTTTTATAATTAAATTT
modifications: 5caC at all four C of the listed strand sites
B2: 40 bp control C oligo (dsDNA)
DNA 1: AAATTTAATTATAAAACGATCGACGACGAAATAATAAAAA
DNA 2: TTTTTATTATTTCGTCGTCGATCGTTTTATAATTAAATTT
B3: 40 bp 5fC oligo (dsDNA)
DNA 1: AAATTTAATTATAAAACGATCGACGACGAAATAATAAAAA
DNA 2: TTTTTATTATTTCGTCGTCGATCGTTTTATAATTAAATTT
modifications: 5fC at all four C of the listed strand sites

How the values were obtained:
Assay in all cases: cell-based or functional assay
MGYPDa23 = target: T1, MGYPDa23
RaDa01 = target: T2, RaDa01
d38_MGYPDa829 = target: T3, d38_MGYPDa829
LbsDa01 = target: T4, LbsDa01
MGYPDa20 = target: T5, MGYPDa20
MGYPDa01 = MGYPDa01 (unidentified)
Sequence of MGYPDa01 (unidentified) (chain, as listed by the source): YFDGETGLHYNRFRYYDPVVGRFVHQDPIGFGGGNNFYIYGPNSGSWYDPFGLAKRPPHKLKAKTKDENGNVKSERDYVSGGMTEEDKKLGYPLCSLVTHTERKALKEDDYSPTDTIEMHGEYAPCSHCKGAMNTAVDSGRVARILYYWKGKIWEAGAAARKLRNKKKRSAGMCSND

CrDa01 = target: T6, CrDa01
AvDa02 = target: T7, AvDa02

| Binder | activity (MGYPDa23) | activity (RaDa01) | activity (d38_MGYPDa829) | activity (LbsDa01) | activity (MGYPDa20) | activity (MGYPDa01) | activity (CrDa01) | activity (AvDa02) |
| --- | --- | --- | --- | --- | --- | --- | --- | --- |
| B1 | 0.02 fraction deaminated | 0.47 fraction deaminated | 0.1 fraction deaminated | 0.1 fraction deaminated |  |  |  |  |
| B2 | 0.97 fraction deaminated | 0.98 fraction deaminated | 0.88 fraction deaminated | 0.92 fraction deaminated | 0.59 fraction deaminated | 0.12 fraction deaminated | 0.98 fraction deaminated |  |
| B3 | 0.23 fraction deaminated | 0.66 fraction deaminated | 0.12 fraction deaminated | 0.14 fraction deaminated |  |  | 0.09 fraction deaminated | 0.08 fraction deaminated |
